# Reference: publication PMC3463765
# Values joined by “and” are separate entries in the source; they are usually repeats but may differ in a detail not shown here. Equal values may be shown once.
# How the values were obtained:
# [1] = biological target: horse serum butyrylcholinesterase (horse); experiment: native gel or EMSA
# [2] = biological target: horse serum butyrylcholinesterase (horse); experiment: SDS-PAGE without reducing agent
# [3] = biological target: horse serum butyrylcholinesterase (horse); experiment: native gel or EMSA; remark: listed apart in the source
substance,measurement,setting,value
horse serum butyrylcholinesterase (enzyme),stoichiometry N,[1],2 and 4
same,stoichiometry N,[2],2
same,stoichiometry N,[3],4
